Results: patent publication US20160033490A1

Target: HRV-3C protease biosensor: blocked hybrid scFv of H6-MG (VH) and HL1-TO1 (VL) with the HRV-3C recognition sequence […]in the peptide linker
Assay: cell-based or functional assay

Human Rhinovirus 3C protease (enzyme)
kinetic assay of MG fluorescence activation, time to complete activation (1 unit protease, 25° C.): 30 min
